Reference: US20220281936A1

B1: Mouse IL12 (unmodified) (ligand)
chain 1: RVIPVSGPARCLSQSRNLLKTTDDMVKTAREKLKHYSCTAEDIDHEDITRDQTSTLKTCLPLELHKNESCLATRETSSTTRGSCLPPQKTSLMMTLCLGSIYEDLKMYQTEFQAINAALQNHNHQQIILDKGMLVAIDELMQSLNHNGETLRQKPPVGEADPYRVKMKLCILLHAFSTRVVTINRVMGYLSSA
chain 2: MWELEKDVYVVEVDWTPDAPGETVNLTCDTPEEDDITWTSDQRHGVIGSGKTLTITVKEFLDAGQYTCHKGGETLSHSHLLLHKKENGIWSTEILKNFKNKTFLKCEAPNYSGRFTCSWLVQRNMDLKFNIKSSSSSPDSRAVTCGMASLSAEKVTLDQRDYEKYSVSCQEDVTCPTAEETLPIELALEARQQNKYENYSTSFFIRDIIKPDPPKNLQMKPLKNSQVEVSWEYPDSWSTPHSYFSLKFFVRIQRKKEKMKETEEGCNQKGAFLVEKTSTEVQCKGGNVCVQAQDRYYNSSCSKWACVPCRVRS
B2: IL12Rβ1-VP-IL12 (protein, part only; not given: IL12Rβ1 mask domains and linker, part only)
chain, part: VPLSLYSRVIPVSGPARCLSQSRNLLKTTDDMVKTAREKLKHYSCTAEDIDHEDITRDQTSTLKTCLPLELHKNESCLATRETSSTTRGSCLPPQKTSLMMTLCLGSIYEDLKMYQTEFQAINAALQNHNHQQIILDKGMLVAIDELMQSLNHNGETLRQKPPVGEADPYRVKMKLCILLHAFSTRVVTINRVMGYLSSA
chain: B1 chain 2
B3: IL12Rβ1-LS-IL12 (protein)
chain 1: QLGASGPGDGCCVEKTSFPEGASGSPLGPRNLSCYRVSKTDYECSWQYDGPEDNVSHVLWCCFVPPNHTHTGQERCRYFSSGPDRTVQFWEQDGIPVLSKVNFWVESRLGNRTMKSQKISQYLYNWTKTTPPLGHIKVSQSHRQLRMDWNVSEEAGAEVQFRRRMPTTNWTLGDCGPQVNSGSGVLGDIRGSMSESCLCPSENMAQEIQIRRRRRLSSGAPGGPWSDWSMPVCVPPEVLPQAGLLSGRSDNHGGGSGGGSRVIPVSGPARCLSQSRNLLKTTDDMVKTAREKLKHYSCTAEDIDHEDITRDQTSTLKTCLPLELHKNESCLATRETSSTTRGSCLPPQKTSLMMTLCLGSIYEDLKMYQTEFQAINAALQNHNHQQIILDKGMLVAIDELMQSLNHNGETLRQKPPVGEADPYRVKMKLCILLHAFSTRVVTINRVMGYLSSAHHHHHH
chain 2: B1 chain 2

Molecular target: IL12 receptor on pre-activated mouse CD8+ T cells (mouse) (UniProt Q60837)
Assay: cell-based or functional assay

| Binder | EC50 of STAT4 phosphorylation in pre-activated mouse CD8+ T cells (flow cytometry) [pM] | EC50 of STAT4 phosphorylation in pre-activated mouse CD8+ T cells, fold against unmodified IL12 [fold] | fold decrease in STAT4 phosphorylation in pre-activated mouse CD8+ T cells, noncleaved construct against IL12 (FIG. 3C) [fold] |
| --- | --- | --- | --- |
| B1 | 16.3 | – | – |
| B2 | – | 80 | 80 |
| B3 | – | 80 | 80 |
